# Measured values reported in the supplement of paper PMC10724198.
# Several values for one entry are separate records, joined by “and”; a condition that tells them apart may be missing. Equal entries are not always repeated. ± gives the standard deviation of the averaged measurements.
# Test system: Saccharomyces cerevisiae
# Assay: protein stability index of tFT-peptide fusion in wild type (PSI (0-1 scale)); higher = more stable (slower turnover)
# Conditions: genetic background: wild type
# Protocol: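 MPS profiling in S. cerevisiae of two library types built from selected 12-aa C-degron peptides (IN1, IN2, LN1, LN3, VN2, R1-R5, W1-W3, Atg1 and Rpa12 C-termini): saturation mutagenesis libraries and C-terminal +1 capping libraries (13 aa). Each peptide is fused to the C-terminus of a sfGFP-mCherry timer, after a GGGS linker. Cells are FACS-sorted into 8 mCherry/sfGFP bins and sequenced. PSI runs from 0 (unstable) to 1 (stable), measured once in wild type and in the das1Δ or doa10Δ background.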
# 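Throughout, for protein stability index of tFT-peptide fusion (C-terminal peptide): PSI is a weighted mean of sequencing reads over stability bins, variants kept only with over 10 reads, mCherry proximal and sfGFP distal, peptide attached via GGGS linker.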
# 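Throughout, for protein stability index of tFT-peptide fusion in wild type: PSI derived as read-weighted mean over the 8 sorting bins, only variants exceeding 10 total reads kept, mCherry placed adjacent to the peptide and sfGFP distal.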
row,Sequence,protein stability index
1,ADTLPMCPLLLR,0.56
2,AIELPMCPLLLR,0.221
3,AIMLPMCPLLLR,0.258
4,AITLPACPLLLR,0.291
5,AITLPECPLLLR,0.467
6,AITLPMCHLLLR,0.158
7,AITLPMCPCLLR,0.367
8,AITLPMCPGLLR,0.635
9,AITLPMCPLLHR,0.628
10,AITLPMCPLLLF,0.462
11,AITLPMCPLLLL,0.558
12,AITLPMCPLLLRE,0.488
13,AITLPMCPLLLRH,0.222
14,AITLPMCPLLLRI,0.0995
15,AITLPMCPLLLRR,0.34
16,AITLPMCPLLLRV,0.11
17,AITLPMCPLRLR,0.453
18,AITLPMCPRLLR,0.648
19,AITLPMDPLLLR,0.627
20,AITLPMRPLLLR,0.176
21,AITLPMYPLLLR,0.161
22,AITLPPCPLLLR,0.232
23,AITYPMCPLLLR,0.287
24,AQTLPMCPLLLR,0.394
25,ARWRVGLWRGAS,0.37
26,CCVSLPILLFFR,0.0702

row,Sequence,protein stability index
1,CLVHLPILLFFR,0.0596
2,CLVLLPILLFFR,0.0939
3,CLVSLFILLFFR,0.228
4,CLVSLKILLFFR,0.189
5,CLVSLPICLFFR,0.0838
6,CLVSLPIILFFR,0.0727
7,CLVSLPILAFFR,0.151
8,CLVSLPILLFDR,0.554
9,CLVSLPILLFFP,0.495
10,CLVSLPILLFFY,0.232
11,CLVSLPILLLFR,0.0579
12,CLVSLPILLYFR,0.0564
13,CLVSLPILQFFR,0.623
14,CLVSLPTLLFFR,0.0585
15,CLVSLPVLLFFR,0.0558
16,CLVSLQILLFFR,0.164
17,CLVSLVILLFFR,0.258
18,CLVSMPILLFFR,0.0734
19,CLVSYPILLFFR,0.0543
20,CVTRLDAIYFRI,0.194
21,DITLPMCPLLLR,0.39
22,FLYMCSVGCWFR,0.351
23,FSMRWTFRYWVN,0.0664 and 0.0463
24,GLCMCSVGCWFR,0.256
25,GLNMCSVGCWFR,0.264
26,GLYMCFVGCWFR,0.233

row,Sequence,protein stability index
1,GLYMCSEGCWFR,0.619
2,GLYMCSRGCWFR,0.436
3,GLYMCSTGCWFR,0.37
4,GLYMCSVGCHFR,0.621
5,GLYMCSVGCMFR,0.524
6,GLYMCSVGCWFL,0.506
7,GLYMCSVGCWFRK,0.435
8,GLYMCSVGCWFRT,0.227
9,GLYMCSVGCWIR,0.179
10,GLYMCSVGCWLR,0.212
11,GLYMCSVGCWWR,0.355
12,GLYMCSVGKWFR,0.637
13,GLYMCSVRCWFR,0.382
14,GLYMCSVTCWFR,0.265
15,GLYMDSVGCWFR,0.521
16,GLYMMSVGCWFR,0.26
17,GLYMVSVGCWFR,0.176
18,GLYMWSVGCWFR,0.278
19,GRYMCSVGCWFR,0.385
20,ISLRVLLPLYFR,0.286
21,KSLRVLLPLYFR,0.288
22,LVVYLSCVACIN,0.0193 and 0.0155
23,QITLPMCPLLLR,0.288
24,QVTRLDAIYFRI,0.346
25,RLVSLPILLFFR,0.0755
26,RPLRVLLPLYFR,0.355

row,Sequence,protein stability index
1,RRTRLDAIYFRI,0.422
2,RSLRILLPLYFR,0.253
3,RSLRVDLPLYFR,0.203
4,RSLRVLEPLYFR,0.412
5,RSLRVLLPLDFR,0.666
6,RSLRVLLPLIFR,0.375
7,RSLRVLLPLYFRE,0.356
8,RSLRVLLPLYFRP,0.291
9,RSLRVLLPLYHR,0.626
10,RSLRVLLPLYLR,0.29
11,RSLRVLLPLYSR,0.609
12,RSLRVLLPTYFR,0.569
13,RSLVVLLPLYFR,0.257
14,RVERLDAIYFRI,0.491
15,RVLRLDAIYFRI,0.376
16,RVSRLDAIYFRI,0.445
17,RVTFLDAIYFRI,0.438
18,RVTGLDAIYFRI,0.534
19,RVTRLDAIFFRI,0.364
20,RVTRLDAIPFRI,0.69
21,RVTRLDAIQFRI,0.658
22,RVTRLDAIYARI,0.684
23,RVTRLDAIYFLI,0.0749
24,WDKRNHLIKLLN,0.113
25,WRWRVGLWRGAS,0.186
26,WVVYLSCVACIN,0.0879

# Test system: Saccharomyces cerevisiae
# Assay: protein stability index of tFT-peptide fusion (C-terminal peptide) (PSI (0-1 scale)); higher = more stable (slower turnover)
# Conditions: genetic background: cdc34-1; temperature: 37 C
# Protocol: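 MPS profiling in S. cerevisiae of the tFT-X12 degron library: putative degron peptides plus stable controls, 12 aa, fused to the C-terminus of a sfGFP-mCherry timer. Cells are FACS-sorted into 8 mCherry/sfGFP bins and deep-sequenced. PSI runs from 0 (unstable) to 1 (stable). Backgrounds are wild type, das1Δ and doa10Δ at 30 °C, and wild type, das1Δ, cdc34-1 and cdc53-1 at 37 °C; 2-3 technical replicates each.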
row,Sequence,protein stability index
1,ARWRVGLWRGAS,0.66 ± 0.033
2,FSMRWTFRYWVN,0.301 ± 0.016
3,LVVYLSCVACIN,0.0319 ± 0.015

# Same assay, conditions: genetic background: cdc53-1; temperature: 37 C
row,Sequence,protein stability index
1,ARWRVGLWRGAS,0.7486 ± 0.0018
2,FSMRWTFRYWVN,0.545 ± 0.03
3,LVVYLSCVACIN,0.028 ± 0.0046

# Same assay, conditions: genetic background: das1 deletion; temperature: 30 C
row,Sequence,protein stability index
1,ARWRVGLWRGAS,0.648 ± 0.021
2,FSMRWTFRYWVN,0.531 ± 0.025
3,LVVYLSCVACIN,0.0277 ± 0.0056

# Same assay, conditions: genetic background: das1 deletion; temperature: 37 C
row,Sequence,protein stability index
1,ARWRVGLWRGAS,0.764 ± 0.011
2,FSMRWTFRYWVN,0.573 ± 0.011
3,LVVYLSCVACIN,0.0456 ± 0.0096
